{"source": "paper PMC12177922", "about": "“In Vivo Ribosome-Amplified MetaBOlism, RAMBO, Effect Observed by Real Time Pulse Chase, RTPC, NMR Spectroscopy” (Biochemistry, 2025)", "key": {"[1]": {"target": "Pyruvate kinase I from E. coli, PYK-F (E. coli) (UniProt P0AD61)"}, "[2]": {"target": "Pyruvate kinase I from E. coli, PYK-F (E. coli) (UniProt P0AD61)", "remark": "listed apart in the source"}, "[3]": {"target": "Pyruvate kinase I from E. coli, PYK-F (E. coli) (UniProt P0AD61)", "test": "ribosome titration of enzyme activity (direct 1H NMR kinetic assay); 120 nM PYK-F, ribosomes titrated up to 8 uM; change of initial velocity (pyruvate methyl peak) at 2 mM PEP and 4 mM ADP; 10 mM sodium phosphate pH 7.5, 50 mM KCl, 10 mM MgCl2, 10 °C; one site-specific binding model …; saturation not reached"}, "[4]": {"target": "Pyruvate kinase I from E. coli, PYK-F (E. coli) (UniProt P0AD61)", "remark": "listed apart in the source"}}, "data": [{"substance": "Intact 70S ribosomes from E. coli strain MRE600 (from UniProt P60723 1-201; P0AG55 1-177; P0A7R1 1-149; P0AA10 1-142; P0AG44 1-127; P0AG48 1-103; P61175 1-110; P68919 1-94; P0A7L8 1-85; P0A7M9 1-70; P0AG67 1-557; P0A7V3 1-233; P0A7X3 1-130; P0A7S3 1-124; P0A7U7 1-87) (complex)", "values": [{"measurement": "kcat of PYK-F (ADP saturation curve) with 2 μM ribosomes against none", "setting": "[1]", "result": 10, "unit": "%"}, {"measurement": "decrease in sum of the influx rates of lactate, ethanol and acetate in living E. coli BL21(DE3) (RTPC-NMR), 2x chloramphenicol against none", "setting": "[2]", "result": 32, "unit": "%"}, {"measurement": "Kd", "setting": "[3]", "result": 10, "unit": "µM"}, {"measurement": "PYK-F activity (initial velocity, NMR kinetic assay) with 3 μM ribosomes against none", "setting": "[4]", "result": 35, "unit": "%"}]}]}
